For series [1], the target named is recombinant survivin(T34A) (UniProt O15392).
For series [2], the target named is recombinant wild type survivin (unphosphorylated) (UniProt O15392).
Chain of recombinant wild type survivin (unphosphorylated) (O15392 whole entry, looked up): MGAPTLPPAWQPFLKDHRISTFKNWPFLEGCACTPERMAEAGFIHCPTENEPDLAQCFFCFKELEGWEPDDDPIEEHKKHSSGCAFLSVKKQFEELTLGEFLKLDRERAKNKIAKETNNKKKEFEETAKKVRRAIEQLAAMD

Chain of recombinant survivin(T34A) (O15392 whole entry T34A): as the sequence (O15392 whole entry, looked up) above, with T34A counted along it

Take “baculovirus-expressed human Cdk2-cyclin E kinase complex”: the “in vitro kinase assay, 32P autoradiography” value in series [1] and in series [2] was “baculovirus-expressed Cdk2-cyclin E did not phosphorylate wild type survivin or survivin(T34A)” each time.

On to “baculovirus-expressed human p34^cdc2-cyclin B1 kinase complex”, for which the “in vitro kinase assay, 32P autoradiography” value in series [1] is given as “substitution of Thr^34→Ala, i.e. survivin(T34A), abolished phosphorylation by p34^cdc2-cyclin B1”; in series [2] it was “baculovirus-expressed p34^cdc2-cyclin B1 readily phosphorylated recombinant wild type survivin”.

The record behind these values is US20030143232.
